Source: patent publication US20090148513A1 (AbbVie / Abbott, published 2009)

Target: rHuTNF (human, UniProt P01375 77-233)
Test: cell-based or functional assay

rHuTNF, sequence (P01375 77-233 limits assumed): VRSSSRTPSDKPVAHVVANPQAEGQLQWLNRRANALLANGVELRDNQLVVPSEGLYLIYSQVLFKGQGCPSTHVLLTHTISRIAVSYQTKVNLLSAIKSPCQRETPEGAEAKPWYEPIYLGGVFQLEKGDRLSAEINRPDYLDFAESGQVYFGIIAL

B1: MAK195F, F(ab')2 fragment of the murine IgG3 monoclonal anti-hTNFalpha antibody MAK195 (other)
light: DIVMTQSHKFMSTTVGDRVSITCKASQAVSSAVAWYQQKPGQSPKLLIYWASTRHTGVPDRFTGSGSVTDFTLTIHNLQAEDLALYYCQQHYSTPFTFGSGTKLEIKRADAAPTVSIFPPSSEQLTSGGASVVCFLNNFYPKDINVKWKIDGSERQNGVLNSWTDQDSKDSTYSMSSTLTLTKDEYERHNSYTCEATHKTSTSPIVKSFNRNEC
heavy: QVQLKESGPGLVAPSQSLSITCTVSGFSLTDYGVNWVRQPPGKGLEWLGMIWGDGSTDYDSTLKSRLSISKDNSKSQIFLKMNSLQTDDTARYYCAREWHHGPVAYWGQGTLVTVSAATTTAPSVYPLVPGCSDTSGSSVTLGCLVKGYFPEPVTVKWNYGALSSGVRTVSSVLQSGFYSLSSLVTVPSSTWPSQTVICNVAHPASKTELIKRIEPRIPKPSTPPGSSCPPGNILGGPSVF
modifications: N-terminal glutamine completely converted into pyroglutamic acid; partial O-glycosylation at SerH222 (about 70% of Fd' fragments non-glycosylated); deamidation of a single asparagine residue (AsnL157)
relative biological activity (neutralisation of rHuTNF cytotoxicity on mouse L-929 cells; mean IC50 of reference standard / IC50 of sample x 100%): 102%
